Results as given in the nanobody polyreactivity screen of Harvey et al. (2022).

Assay: yeast display, Sf9 membrane polyspecificity reagent, FACS + sequencing; frameworks hold sequencing errors
In short: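 Sorting gates, low and high (top ~1%), were placed on anti-HA fluorescence to track expression and on streptavidin fluorescence to track reagent binding. A clone's polyreactivity label is taken from the gate it came out of. The reagent was 10% biotinylated, detergent-solubilized Sf9 membrane, applied for 1 hour at 4 °C to galactose-induced yeast display cells.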

Sequence | polyreactivity (PSR sort gate)
QVQLVESRGALVQAGGSLRLSCAASGYIFRAYAMGWYRPAPGKERELVAAISSRGGSTYYADSVKGRFTISRDNAKNTVYLQMNSLKPEDTAVYYCAAAYRQPYIGYGYWGQGTQVTVSS | high polyreactivity
QVQLVESGGGLVQAGGSLRLSCAASGRTFEQYAMGWYRQAPGKERELVAAISKRGGSTYYADSVKGRFTISRDNAKNTVYLQMNSLKPEDTAVYYGATEKASNYFYRFDYWGQGTQVTVSS | low polyreactivity
QVQLVESGGGLVQAGGSLRVSCAASGSTFQYNAMGWYRQAPGKERELVAVITRRGGRTYYADSVKGRFTISRDNAKNSVYLQLNSLKAEDTAVYYCAAYFDYTHRFYYWGQGTQVTVSS | high polyreactivity
QVQLVESGGGLVQAGGSLRLSCAASGFTFGSNDMGWYRQAPVKERELVAAIDGSGDTYYADSVKGRFTISRDNAKNTVYLQMNSLKPEDTAVYYCAAGYTYYSLYGYWGQGTQVTVSS | low polyreactivity
QVQLVESGGGLVQAGGSLRLSCAASGRTSYVYAMGWYRQAPGKERELVATISFRGGSTYYADSVKGRFTISRDNAKNTVYLQMNSLKPEDTAVYYCAATTPYYTPRRRNEYWGQGTQVTVSS | high polyreactivity
QVQLVESGGGLVQAGGSLRLSCAASGITSGHNAMGWYRQAPGKERELVADIRTGDSTNYADSVKGRFTISRDNAKNTVYLQMNSLKPEDTAVYYCAADSAYDVTSYGYWGQGTQVTVSS | low polyreactivity
QVQLVESGGGLVQAGGSLRLSCAASGSIFPRNAMGWYRQAPGKERELVAAITTTGGITHYADSVKGRFTISRDNAKNTVYLQMNSLKPEDTAVYYCNASYEYNAGRVETEYDYWGQGTQVTVSS | low polyreactivity
QVQLVETGGGLVQAGGSLSLSCAGSVSTFWFYPMGCYRQATGKEREFVATISRSGGSTHNADSVKGRFTISSDNAKNTVYLQMNSLKPEDTAVYYCAKYQRYYSNDYNYWGQGTQVTVSS | high polyreactivity
QVQLVESGGGLVQAGGSLRFSCAASGRIFTPYAMGWYRQAPGKERELVAVIRDGSTYYADSVKGRFTISRDNAKNTVYLQMNSLKPEDTAVYYCRYDIWVWWSGAYDYWGQGTQVTVSS | low polyreactivity
QVQLVESGGGLVQAGGSLRLSCAASGSTFASYAMGWYRQAPGKERELVAAITNGGSTNYADSVKGRFTISRDNAKNTVYLQMNSLKPEDTAVYYCAAYDGFPRRYDYWGQGTQVTVSS | low polyreactivity
QVQLVESGGGLVQAGGSLRLSCAASGRTSGRYAMGWYRQAPGKERELVAGITSSGGSTYYADSVKGRFTISRDNAKNSVYLQMNSLKPEDTAVYYCAKVWGAKGKTYRMYSWGQGTQVTVSS | high polyreactivity
QVQLVESGGGLVQAGGSLRLSCAAYGSTFDRNVMGWYRQAPGKERELVAAISRVSSTNYADSVKGRFTISRDNAKNTVYLQMNSLKPEDTAVYYCAADRPGSIMNYWGQGTQVTVSS | low polyreactivity
QVQLVESGGGLVQAGGSLRLSCAASGSTLYAYAMGWYRQAPGKERELVAAIRTGGSTYYADSVKGRFTISRDNAKNTVYLQMNSLKPEDTAVYYCAADHGYQYGYWGQGTQVTVSS | low polyreactivity
QVQLVESAGGLVQAGGSLRLSCAASGRIFGYYAMGWYRQAPGKERELVARISRGGSTYYADSVKGRFTISRDNAMNTVYLQMTSLKPEDTGVYYCAATRSGYTSYTDDSWGQGTQVTVSS | high polyreactivity
QVQLVESGGGLVQARGSLRLSSAASGIIFYEYAMGCYRQAPGKERELVAAISDTGGSTYYADSVKGRFTISRDNAKNTVYLQMNSLKPEDTAVYYCAAEYLAYYSGYDYWGQGTQVTVSS | high polyreactivity
QVQLVESGGGLVQAGGSLRLSCAASGFTFARYAMGWYRQAPGKERELVAAIDRSGGSTYYADSVKGRFTISRDNAKNTVFLQMNSLKPEDTAVYYCNAVSSFTSPRYDYWGQGTQVTVSS | high polyreactivity

Sequence | polyreactivity (PSR sort gate)
QVQLVESGGGLVLAGGSLRLSCAASGSILTFYAMGWYRQAPGKERELVARITLIVARTNYADSVKARFTISRDNAKNTVYLQMNSLKPEDTAVYYCAKRDGDSGIGFGYWGQGTQVTVSS | low polyreactivity
QVQLVESGGGLVQAGGSLRLSCAASGSIFFSYVMGWYRQAPGKERELVADITYSGGSTFYADSVKGRFTISRDNAKNTVYLQMNSLKPEDTAVYYCAATWYSWGSEFDYWGQGTQVTVSS | high polyreactivity
QVQLVESGGGLDQAGGSLRLSCAASGNIFYGNAMGWSRQAPGKERELVAGITSGGSTNYADSVKGRFTISRDTAKNTVYLQMTSLKPEDTAVYYCNATSSGSIFGYEYWGQGTQVTVSS | low polyreactivity
QVQLVESGGGLVQAGGSLRLSCAASGFIFLGNAMGWYRPAPGKERDLVAAISSGGSTYADSVKGRFTISRDNAKYTVYLQMNSLKPEDTAVYYCAVDRAFRAQNYHEYDYWGQGTQVTVSS | low polyreactivity
QVQLVESGGGLVQAGGSLRLSCAASGRNFTIYAMGWYRQAPGKERELVATISSNVGSTYYADSVKGRFTISRDNAKNTVYLQMNSLKPEDTAVYYCNVVPYLYGLDGYDYWGQGTQVTVSS | high polyreactivity
QVKLQESGGGLVQAGGSLRLSCAASGNISVTGFMGWYRQAPGKERELVASIGIGGTTYYADSVKGRFSISRDNANNTLYLQMNSLKPEDTAVYYCAARYLYYAYSYWGQGTQVTVSS | low polyreactivity
QVQLVESGGGLVQAGGSLRLSCAAYGSTFDRNAMGWYRQAPGKERDLVAAISWRGGSTYYSDSVKGRFTISRDNAKNTVYLQMNSLKPDDTAVYYCNKVVTWQGPYDYWGQGTQVTVSS | high polyreactivity
QVQLVESGGGLVQAGGSLRLSCAASGRIFYYYVMGWYRQAPGKEREFVAAISWSASNTYYADSVKGRFTISRDNAKNTVYLQMNSLKPEDTAVYYCAADTLWLDWQGYDYWGQGTQVTVSS | low polyreactivity
QVQLVESGGGLVQAGGSLRLSCAASGSILRVNAMGWYRQAPGKEREVVAAISSGGITNYADSVKGALHNFTRQCEEYRLFTDEQPETGTYRGQFCARTYRNPASAGSLVVRYPYDYWGQGTQVTVTS | low polyreactivity
QVQLVESGGGLVQAGGSLRLSCAASGRTFYVYDMGWYRQAPGKERELVAVISSSGSTNYADSVKGRFTISRDNAKNTVYLQMNSLKPEDTAVYYCNRRRWYFFSLDYWGQGTQVTVSS | high polyreactivity
QVQLVESGGGLVQAGGSLRLSCDASGSIFRYYGMGWYRQAPGKERELVAAISARGGSTRYADSVKGRFTISRDNAKNTVYLQMNSLKPEDTAVYYCAAGYPYDYDYWGQGTQVTVSS | high polyreactivity
QVQLVESGGGLVQAGGSLRLSCAASGITFRKYAMGWYRQAPGKERELVAGIRRGGSTYYADSVKGRFTISRDNAKNTVYLQMNSLKPEDTAVYYCATRARYKRIRYDYWGQGTQVTVSS | high polyreactivity
QVQLVESGGGLVQAGGSLRLSCAASGFILQYNAMGWYRQAPGKEREFVATITGSGGSTYYADSVKGRFTISRDNAKNTVYIQMYSLKPEDTAFYYCNAETYIDLSGKFPVDYDYWGQGTQVTVSS | low polyreactivity
QVQLVESGGGLVQAGGSLRLSCAASGSIFAKNAMGWYRQAPGKERELVAGIDFSGGSTYSADSVKGRFTISRDNAQNTVYLQMNSLKPEDTAVDYCAADWAYKYELDYWGQGTQVTVSS | low polyreactivity
QVQLVESGGGLVQAGGSLRLSCAASGLIVVHYAMGWYSQAPGKVREFVAAITWSGGSTYYADSVKGRFTISRDNAKNTVYLQMNSLKPEDTAVYYCAVDGFRPGTASFGYWGQGTQVTVSS | low polyreactivity
QVQLVESGGGLVQAGGSLRLSCAASGLIFDVNTMGWYRQAPGKERELVAAITGSGGRTYYADSVKGRFTISRDNGKNTVYLQMNSLKPEDTAFYYCNADTSYVGFDYWGQGTQVTVSS | low polyreactivity
